We go through 49 substances from patent US20030186841.

Series [1] addresses VP16-C7-ER (synthetic/mouse ER) (UniProt P19785). Briefly: cell_activity. To be noted: 4-OH tamoxifen.
For series [2], the system named is VP16-C7-PR (synthetic/human PR). Description: cell_activity. To be noted: RU486.
Series [3] has as its system E2C(Sp1) six-finger (synthetic). Briefly: EMSA.
Series [4] deals with E2C(Zif) six-finger (synthetic). Description: EMSA. A general note: In EMSA bound probe runs differently from free probe, usually more slowly.
The target in series [5] is C7-PBD-VP64 (synthetic/human PR) (UniProt P08046). Briefly: cell_activity. To be noted: +RU486.
Series [6] has as its system E2F-PBD-VP64 heterodimer (synthetic/human PR). Description: cell_activity. To be noted: basal; 54986 with RU486; pcDNA control 17209.
Series [7] relates to E2C-HS2(Zif) (synthetic). Briefly: EMSA.
In series [8] the test system is E2C-HS2(Sp1) (synthetic). Briefly: EMSA.
The subject of series [9] is E2C-HS2(F2) (synthetic). Briefly: EMSA. To be noted: ELISA binding good (Table 11).
The subject of series [10] is B3B(Sp1)-VP64 (synthetic). Description: cell_activity. To be noted: HeLa luciferase.
Series [11] has as its target pmGTT (Zif268-C7 finger 2 variant) finger 2 helix -2 to 6 = STSGSLVR in Zif268-C7 (synthetic) (UniProt P08046). Description: EMSA. To be noted: [none].
Series [12] deals with pmGGT (Zif268-C7 finger 2 variant) finger 2 helix -2 to 6 = STSGHLVR in Zif268-C7 (synthetic) (UniProt P08046). Description: EMSA. To be noted: [7-9,26-28].
Series [13] concerns the target pmGCT (Zif268-C7 finger 2 variant) finger 2 helix -2 to 6 = STSGELVR in Zif268-C7 (synthetic) (UniProt P08046). Briefly: EMSA. To be noted: [none].
Series [14] has as its target pGCA (Zif268-C7 finger 2 variant) finger 2 helix -2 to 6 = SQSGDLRR in Zif268-C7 (synthetic) (UniProt P08046). Briefly: EMSA. To be noted: [none].
The target of series [15] is pGAT (Zif268-C7 finger 2 variant) finger 2 helix -2 to 6 = STSGNLVR in Zif268-C7 (synthetic) (UniProt P08046). Description: EMSA. To be noted: [none].
For series [16], the target named is pGTG (Zif268-C7 finger 2 variant) finger 2 helix -2 to 6 = SRKDSLVR in Zif268-C7 (synthetic) (UniProt P08046). Description: EMSA. To be noted: [7-9,26-28].
Series [17] deals with pmGGG (Zif268-C7 finger 2 variant) finger 2 helix -2 to 6 = SRSDKLVR in Zif268-C7 (synthetic) (UniProt P08046). Description: EMSA. To be noted: [7-9,26-28].
The target in series [18] is pGTA (Zif268-C7 finger 2 variant) finger 2 helix -2 to 6 = SQSSSLVR in Zif268-C7 (synthetic) (UniProt P08046). Description: EMSA.
For series [19], the target named is pmGTG (Zif268-C7 finger 2 variant) finger 2 helix -2 to 6 = SRSDELVR in Zif268-C7 (synthetic) (UniProt P08046). Briefly: EMSA. To be noted: [7-9,26-28].
Series [20] has as its target C7 (Zif268-C7) (synthetic) (UniProt P08046). Description: EMSA. To be noted: [none].
Series [21] addresses pmGAG (Zif268-C7 finger 2 variant) finger 2 helix -2 to 6 = SRSDNLVR in Zif268-C7 (synthetic) (UniProt P08046). Description: EMSA. To be noted: [7-9,26-28].
The target of series [22] is pGGG (Zif268-C7 finger 2 variant) finger 2 helix -2 to 6 = SRSDHLTR in Zif268-C7 (synthetic) (UniProt P08046). Description: EMSA. To be noted: [7-9,26-28].
Series [23] concerns the target pmGCG (Zif268-C7 finger 2 variant) finger 2 helix -2 to 6 = SRSDDLVR in Zif268-C7 (synthetic) (UniProt P08046). Description: EMSA.
For series [24], the target named is pGTC (Zif268-C7 finger 2 variant) finger 2 helix -2 to 6 = SDPGALVR in Zif268-C7 (synthetic) (UniProt P08046). Briefly: EMSA. To be noted: [none].
For series [25], the target named is pmGGC (Zif268-C7 finger 2 variant) finger 2 helix -2 to 6 = SDPGHLVR in Zif268-C7 (synthetic) (UniProt P08046). Briefly: EMSA. To be noted: [7-9,26-28].
The target of series [26] is pGCC (Zif268-C7 finger 2 variant) finger 2 helix -2 to 6 = SDCRDLAR in Zif268-C7 (synthetic) (UniProt P08046). Briefly: EMSA. To be noted: [none].
The target in series [27] is pmGAC (Zif268-C7 finger 2 variant) finger 2 helix -2 to 6 = SDPGNLVR in Zif268-C7 (synthetic) (UniProt P08046). Briefly: EMSA. To be noted: [none].
Series [28] deals with pGGA (Zif268-C7 finger 2 variant) finger 2 helix -2 to 6 = SQRAHLER in Zif268-C7 (synthetic) (UniProt P08046). Briefly: EMSA. To be noted: [7-9,26-28].
Series [29] concerns the target pmGAA (Zif268-C7 finger 2 variant) finger 2 helix -2 to 6 = SQSSNLVR in Zif268-C7 (synthetic) (UniProt P08046). Description: EMSA. To be noted: [none].
Series [30] relates to C5(F2) three-finger protein (synthetic). Description: EMSA.
In series [31] the test system is B3C2(Sp1)-VP64 (synthetic). Description: cell_activity. To be noted: HeLa luciferase.
Series [32] relates to B3(F2) three-finger protein (synthetic). Briefly: EMSA.
Series [33] has as its system E2C-HS1(F2) (synthetic). Description: EMSA. To be noted: ELISA binding good (Table 11).
Series [34] relates to E2C-HS1(Sp1) (synthetic). Description: EMSA.
Series [35] relates to E2C-HS1(Zif) (synthetic). Description: EMSA.
The subject of series [36] is E2C(Sp1)-VP16 (synthetic). Briefly: cell_activity. To be noted: HeLa luciferase.
In series [37] the test system is E2C(F2) six-finger (synthetic). Description: EMSA.
The subject of series [38] is E2(F2) three-finger protein (synthetic). Description: EMSA.

pKd: −log10 of the molar value.

On to 10xC7 pGL3prom reporter, for which the results for the activity (fold induction) in series [1] and in [2] were 43 and 26, respectively. What is called pKd is the negative decadic logarithm of the Kd, by convention in mol/L. The low end stands for a high Kd, the high end for a low Kd. Take “AGTCTGAATGCCGCAGTGG (double strand) [e2c-muths1]”: the results for the pKd in [3] and in [4] were 7.19 and 6.70, respectively.

For the substance “C7 direct repeat, 0 spacer, TATA reporter”, the activity (luciferase units) in series [5] (4081 without) turned out to be 20000. In series [5] (3383 without), “C7 direct repeat, 1 bp spacer, TATA reporter” showed an activity (luciferase units) of 8200. For the substance “C7 direct repeat, 2 bp spacer, TATA reporter”, in series [5] (3417 without), the activity (luciferase units) is 8170.

“C7 direct repeat, 3 bp spacer, TATA reporter”: the activity (luciferase units) in [5] (3269 without) is 5140. In turn, “C7 direct repeat, 4 bp spacer, TATA reporter” came in with an activity (luciferase units) in [5] (3966 without) of 6940. In series [5] (2597 without), “C7 direct repeat, 5 bp spacer, TATA reporter” had an activity (luciferase units) of 5460. As to “C7 everted repeat, 0 spacer, TATA reporter”, the activity (luciferase units) in series [5] (8750 without) is 17400. For the substance “C7 everted repeat, 1 bp spacer, TATA reporter”, the activity (luciferase units) in series [5] (6029 without) stood at 13600. Substance “C7 everted repeat, 2 bp spacer, TATA reporter” yielded an activity (luciferase units) in series [5] (7880 without) of 20800. In turn, “C7 everted repeat, 3 bp spacer, TATA reporter” showed an activity (luciferase units) in [5] (9670 without) of 21500.

In series [5] (6974 without), “C7 everted repeat, 4 bp spacer, TATA reporter” returned an activity (luciferase units) of 8900. Take “C7 everted repeat, 5 bp spacer, TATA reporter”: in [5] (6892 without), the activity (luciferase units) is 13100. For “C7 inverted repeat, 0 spacer, TATA reporter”, the activity (luciferase units) in [5] (2921 without) stood at 10800.

The substance “C7 inverted repeat, 1 bp spacer, TATA reporter” yielded an activity (luciferase units) in [5] (4342 without) of 9530. For “C7 inverted repeat, 2 bp spacer, TATA reporter”, the activity (luciferase units) in series [5] (6964 without) stood at 19200. For the substance “C7 inverted repeat, 3 bp spacer, TATA reporter”, the activity (luciferase units) in [5] (7132 without) is 12800. Regarding “C7 inverted repeat, 4 bp spacer, TATA reporter”, the activity (luciferase units) in series [5] (3502 without) is 8860. “C7 inverted repeat, 5 bp spacer, TATA reporter” had an activity (luciferase units) in series [5] (4704 without) of 12400.

Consider “GAGGAGGGCTGCTTGAGGAAGTA (double strand) [erbB-2 promoter reporter, E2F dimer site]”, for which the activity (luciferase units) in series [6] came out at 61400. On to GCCGCAGTGG (double strand) [e2c-hs2], for which the negative-log Kd (pKd) in series [7] is 7.12; in series [8], 7.60; in series [9], 7.15. In the case of “GCCTGAGAGGGAGCGGTG (double strand) [integrin beta3 promoter reporter, b3b site]”, the activity (fold activation) in series [10] is 12. As to “GGACGCAACCGCGGGTTTTCCCGCGGTTGCGTCC [F2 site GTT]”, the pKd in series [11] is 8.30. On to “GGACGCACCCGCGGGTTTTCCCGCGGGTGCGTCC [F2 site GGT]”, for which, in [12], the pKd is 7.82.

In the case of “GGACGCAGCCGCGGGTTTTCCCGCGGCTGCGTCC [F2 site GCT]”, the pKd in [13] was 7.19; in series [14], 8.00. “GGACGCATCCGCGGGTTTTCCCGCGGATGCGTCC [F2 site GAT]” had a negative-log Kd (pKd) in series [15] of 8.52.

Turning to “GGACGCCACCGCGGGTTTTCCCGCGGTGGCGTCC [F2 site GTG]”, the pKd is 8.52 in series [16], less than 5.85 in series [17], less than 6.00 in [18] ([7-9,26-28]) and 7.82 in series [19]. “GGACGCCCACGCGGGTTTTCCCGCGTGGGCGTCC [F2 site TGG]” had a negative logarithm of the Kd (pKd) in series [20] of 9.30. Consider “GGACGCCCCCGCGGGTTTTCCCGCGGGGGCGTCC [F2 site GGG]”, for which the negative logarithm of the Kd (pKd) in series [21] is 7.35; in series [17], 8.22; in [22] it was 9.40. In series [23] ([none]), “GGACGCCGCCGCGGGTTTTCCCGCGGCGGCGTCC [F2 site GCG]” gave a pKd of 8.05. For the substance “GGACGCCTCCGCGGGTTTTCCCGCGGAGGCGTCC [F2 site GAG]”, the negative-log Kd (pKd) in series [21] is 9.00; in series [23] ([7-9,26-28]), 8.22; in [19] it was 7.52. With “GGACGCGACCGCGGGTTTTCCCGCGGTCGCGTCC [F2 site GTC]”, the pKd in series [24] was 7.40. For “GGACGCGCCCGCGGGTTTTCCCGCGGGCGCGTCC [F2 site GGC]”, the figures for the pKd in series [25] and in series [12] were 7.40 and less than 5.62, respectively.

Take “GGACGCGGCCGCGGGTTTTCCCGCGGCCGCGTCC [F2 site GCC]”: the pKd was 7.10 in series [26], less than 5.36 in [24] and 7.05 in series [27]. In series [27], “GGACGCGTCCGCGGGTTTTCCCGCGGACGCGTCC [F2 site GAC]” had a negative-log Kd (pKd) of 8.52.

The substance “GGACGCTACCGCGGGTTTTCCCGCGGTAGCGTCC [F2 site GTA]” had a pKd in [18] ([none]) of 7.60. “GGACGCTCCCGCGGGTTTTCCCGCGGGAGCGTCC [F2 site GGA]” showed a pKd in [28] of 8.52. For the substance “GGACGCTGCCGCGGGTTTTCCCGCGGCAGCGTCC [F2 site GCA]”, in [14], the negative-log Kd (pKd) was 8.70. Substance “GGACGCTTCCGCGGGTTTTCCCGCGGAAGCGTCC [F2 site GAA]” showed a pKd in [29] of 9.30. The substance GGAGGCGGGG (double strand) [c5] had a negative logarithm of the Kd (pKd) in [30] of 7.52. As for “GGAGGGGACGCGGTGGGT (double strand) [integrin beta3 promoter reporter, b3c2 site]”, in series [31], the activity (fold activation) was 22. GGAGGGGAGG (double strand) [b3] showed a pKd in series [32] of 8.40.

For “GGGGCCGGAAGTCTGAATG (double strand) [e2c-muths2]”, the negative-log Kd (pKd) in series [3] is 7.00; in series [4], 6.70. As for GGGGCCGGAG (double strand) [e2c-hs1], the pKd in series [33] is 7.35; in series [34], 7.46; in series [35], 7.15. For “GGGGCCGGAGCCGCAGTG (double strand) [erbB-2 promoter reporter, E2C site]”, the activity (fold activation) in [36] stood at 5. Consider “GGGGCCGGAGCCGCAGTGA (double strand) [e2c-a]”, for which the results for the pKd in series [3] and in [4] were 9.12 and 8.64, respectively. As for “GGGGCCGGAGCCGCAGTGG (double strand) [e2c-g]”, the pKd in [3] is 9.30; in [37] it was 7.60; in [4] it was 8.80. In the case of GGGGGCGAGG (double strand) [e2], in series [38], the negative-log Kd (pKd) was 8.52.
